The target in the test is Labeled Vip3Aa (MST) (Bacillus thuringiensis). Put plainly: MST; labeled Vip3Aa 10 nM, GST-FGFR-N titrated 0.3 nM to 10 µM; 25 mM HEPES pH 7.5, 0.05% Tween-20, 150 mM NaCl; 25 °C; Hill equation fit; three independent experiments.

The results in this text go back to publication PMC6315849.

The term Kd denotes the constant that tells how readily two partners part at equilibrium. In turn, “GST-FGFR-N (extracellular regions of Sf-FGFR, aa 27-415, with a GST tag) (domain or fragment)” returned a Kd of 1430 nM.
